Test results: patent US20240116999A1, “CONFORMATIONALLY CONSTRAINED GLUCAGON ANALOGUES AND THEIR USE IN GLUCAGON-SINGLE CHAIN INSULIN FUSION PROTEINS” (THE TRUSTEES OF INDIANA UNIVERSITY, priority 2021, published 2024)
Bridge positions count the residues as written; N and C are the ends. Square brackets hold non-standard residues; d marks the D form. Orn = NCCC[C@H](N)C(=O)O

Experiments:
[1] = Thioflavin T (ThT) fibrillation assay; assay type: physicochemical; details: FIG. 15; month-long assay, 100 μM, pH 7.4, 37° C.
Description: Fibrillation Assays. We employed an automated plate-based fluorescent device to monitor the time course of peptide fibrillation using a Thioflavin T (ThT) assay. This assay is based on the THT fluorescence emission at 480 nm upon binding to mature fibrils when excited at 440 nm. The assay was performed by preparing stock solutions of the fusion protein and the individual peptides in either NaCl 0.9% (pH 2.5) or PBS (pH 7.4). Our experience has identified 100-μM final concentration as optimal fibrillation conditions for glucagon analogues. Stock solutions were diluted with NaCl 0.9% or 1X PBS buffer, pH adjusted (with 1N HCl or 1N NaOH) mixed with Thioflavin-T (THT) at a final concentration of 16 μM, centrifuged, and 250 μl of the sample were placed on a 96-well plate with 4-10 technical replicates. Measurements were done every 15 minutes and the sample agitated at 1096 cpm at 37° C. on a Synergy H1 microplate reader (BioTek, Winooski, VT). The lag time, defined as the time-point at which fibrillation starts its exponential phase, was considered as the point at which fluorescence was 3 times the background signal.

STZ (diabetic) rats = test: In vivo assay in STZ (diabetic) rats, subcutaneous injection; design: species or system rat; details: for effect on blood glucose levels: FIG. 17, STZ rats, 12 nmol/kg per rat
Excerpt: FIG. 17 presents an in vivo assay done in STZ rats.
FIG. 18 presents another in vivo assay done in STZ rats. The four fusion proteins used in FIG. 17 were subcutaneously injected at doses of 23.8 nmol/kg per rat. […] In this study both fusion proteins carrying an active SCI analogue had similar activities.

B1: HSQGTFTSDYSOKLDSEOAQDFVQWLMNTEEKFVNQHLCGSHLVEALYLVCGEOGFFYTPETEEGPOOGIVEQCCQSICSLEQLENYCN (protein)
chain: HSQGTFTSDYSXKLDSEXAQDFVQWLMNTEEKFVNQHLCGSHLVEALYLVCGEXGFFYTPETEEGPXXGIVEQCCQSICSLEQLENYCN
modifications: K13-E17 lactam; ornithine residues; glucagon/insulin fusion peptide analog; (12)..(12) Xaa at position 12 is ornithine; (18)..(18) Xaa at position 18 is ornithine; (54)..(54) Xaa at position 54 is ornithine; (67)..(67) Xaa at position 67 is ornithine; (68)..(68) Xaa at position 68 is ornithine
notes: fusion protein made by trypsin-mediated ligation
- formation of amyloid-like fibrils [1]: did not form amyloid-like fibrils within the duration of the experiment
- effect on blood glucose levels (STZ (diabetic) rats): higher activity than the corresponding analogue containing an active SCI and inactive glucagon
- activity at 23.8 nmol/kg relative to the 12-nmol/kg rat doses (STZ (diabetic) rats; FIG. 18 vs FIG. 17, STZ rats): stayed in a similar range

B2: HSQGTFTSDYSOKLDSEOAQDFVQWLMNTEEKFVNQHLCGSHLVEALYLVCGEOGFFYTPETEEGPOOGILEQCCQSICSLEQLENYCN (protein)
chain: HSQGTFTSDYS[Orn]KLDSE[Orn]AQDFVQWLMNTEEKFVNQHLCGSHLVEALYLVCGE[Orn]GFFYTPETEEGP[Orn][Orn]GILEQCCQSICSLEQLENYCN
modifications: lactam 13-17; ends not checked
notes: as for B1
- effect on blood glucose levels (STZ (diabetic) rats): slight rise in blood glucose levels
- effect on blood-glucose concentrations (STZ (diabetic) rats; FIG. 18, STZ rats, 23.8 nmol/kg per rat): didn't cause an increase in blood-glucose concentrations
